Patent US7749694

Legend:
[1] = molecular target: pertactin ectodomain (Prn-E) (Bordetella (species not stated)); assay: isothermal titration calorimetry (ITC)
[2] = molecular target: pertactin ectodomain (Prn-E) (Bordetella (species not stated)); assay: static light scattering

Substance: Mtd-P1 (major tropism determinant variant of Bordetella bacteriophage BPP-1) (from UniProt Q775D6 1-381)
- Kd [1]: 3000 nM
- stoichiometry of association between Mtd and Prn-E (Mtd monomers per Prn-E (ratio 3:1)) [2]: 3
